Test results from publication doi:10.1101/2025.10.27.684894, “Alternative splicing of synaptotagmin 7 regulates oligomerization and short-term synaptic plasticity” (bioRxiv, 2025).

Biological target: T1, Halo-tagged α-syt7cyto (cytoplasmic domain of synaptotagmin 7 α, immobilised on HaloLink resin) (mouse, UniProt Q9R0N7 38-403)
T1 construct: synaptotagmin 7, α splice variant, cytoplasmic domain; The Halo-tagged construct is not described under DNA constructs; The sentence on syt1-fl says only 'immobilized syt7'; also called immobilized syt7; source: purified Halo-tagged protein; recombinant proteins were expressed in E. coli BL21(DE3)
Test: pull-down; Halo-tagged bait immobilised on HaloLink resin (7 μM bait), prey syt1-fl in DOPC proteoliposomes; 25 mM HEPES pH 7.4, 100 mM KCl, 0.2 mM EGTA or 1.2 mM Ca2+; 1 h at 25 °C; supernatants analysed by SDS-PAGE and Western blot
Conditions: both partners purified

T1 sequence (Q9R0N7 38-403): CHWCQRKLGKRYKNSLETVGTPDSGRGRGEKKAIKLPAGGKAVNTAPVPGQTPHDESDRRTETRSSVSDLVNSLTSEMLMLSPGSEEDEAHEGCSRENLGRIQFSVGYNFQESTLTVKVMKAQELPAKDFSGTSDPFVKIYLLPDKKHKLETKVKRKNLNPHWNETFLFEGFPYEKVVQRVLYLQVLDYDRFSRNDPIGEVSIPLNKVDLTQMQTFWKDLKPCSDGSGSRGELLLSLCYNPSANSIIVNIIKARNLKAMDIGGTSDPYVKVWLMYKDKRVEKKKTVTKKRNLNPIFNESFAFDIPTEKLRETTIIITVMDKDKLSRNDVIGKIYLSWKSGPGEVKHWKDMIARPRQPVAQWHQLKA

B1: syt1-fl (full-length synaptotagmin 1, reconstituted into liposomes) (natural protein, rat, UniProt P21707 1-421, looked up)
chain: MVSASHPEALAAPVTTVATLVPHNATEPASPGEGKEDAFSKLKQKFMNELHKIPLPPWALIAIAIVAVLLVVTCCFCVCKKCLFKKKNKKKGKEKGGKNAINMKDVKDLGKTMKDQALKDDDAETGLTDGEEKEEPKEEEKLGKLQYSLDYDFQNNQLLVGIIQAAELPALDMGGTSDPYVKVFLLPDKKKKFETKVHRKTLNPVFNEQFTFKVPYSELGGKTLVMAVYDFDRFSKHDIIGEFKVPMNTVDFGHVTEEWRDLQSAEKEEQEKLGDICFSLRYVPTAGKLTVVILEAKNLKKMDVGGLSDPYVKIHLMQNGKRLKKKKTTIKKNTLNPYYNESFSFEVPFEQIQKVQVVVTVLDYDKIGKNDAIGKVFVGYNSTGAELRHWSDMLANPRRPIAQWHTLQVEEEVDAMLAVKK
notes: synaptotagmin 1, rat cDNA from T. C; Sudhof (Perin et al., 1990); the D374 mutation of that cDNA was corrected to glycine, so residue 374 is G; also called SUMO-syt1-fl; source: E. coli BL21(DE3), purified (with 0.9% CHAPS; cleaved from the beads with SUMO protease), reconstituted into DOPC proteoliposomes
ratio of binding in Ca2+ to binding in EGTA: 1.46 ± 0.15
